Results taken from US20240294646A1.
Blank lines part the entries; values can stand above or below the substance they belong to.

Legend:
[1] = target: FcγRIIaR, soluble extracellular domain (UniProt P12318); experiment: SPR, Protocol 2; the wild-type reference itself
[2] = target: FcγRIIb, soluble extracellular domain (UniProt P31994); experiment: SPR, Protocol 2; the wild-type reference itself
[3] = target: FcγRIIb, soluble extracellular domain (UniProt P31994); experiment: SPR, Protocol 2; ratio of the fold on FcγRIIb to the fold on FcγRIIaR; the wild-type reference itself
[4] = target: FcγRIIb, soluble extracellular domain (UniProt P31994); experiment: SPR, Protocol 2; ratio of the fold on FcγRIIb to the fold on FcγRIIaR
[5] = target: FcγRIIaR, soluble extracellular domain (UniProt P12318); experiment: SPR, Protocol 2; fold over wild-type v16463
[6] = target: FcγRIIb, soluble extracellular domain (UniProt P31994); experiment: SPR, Protocol 2; fold over wild-type v16463
[7] = target: FcγRIIaR, soluble extracellular domain (UniProt P12318); experiment: SPR (Biacore 4000, Protocol 2): antibody captured on immobilised HER2, soluble receptor as analyte
[8] = target: FcγRIIb, soluble extracellular domain (UniProt P31994); experiment: as above
[9] = target: FcγRIIb, soluble extracellular domain (UniProt P31994); experiment: SPR; IIb-Fold/IIaR-Fold (FcγRIIb over FcγRIIaR, vs WT v16463)
[10] = target: FcγRIIb, soluble extracellular domain (UniProt P31994); experiment: SPR; FcγRIIb affinity fold relative to control v27294
[11] = target: FcγRIIaR, soluble extracellular domain (UniProt P12318); experiment: SPR; FcγRIIaR affinity fold relative to control v27294
[12] = target: FcγRIIb, soluble extracellular domain (UniProt P31994); experiment: SPR; fold change in FcγRIIb affinity over WT v16463
[13] = target: FcγRIIb, soluble extracellular domain (UniProt P31994); experiment: SPR; IIb-Fold/IIaR-Fold relative to control v27294
[14] = target: FcγRIIaR, soluble extracellular domain (UniProt P12318); experiment: SPR; fold change in FcγRIIaR affinity over WT v16463
[15] = target: FcγRIIaR, soluble extracellular domain (UniProt P12318); experiment: SPR (General Methods Protocol 2): one-armed antibody captured on immobilised HER2, soluble receptor as analyte
[16] = target: FcγRIIb, soluble extracellular domain (UniProt P31994); experiment: as above
[17] = target: FcγRIIaR, soluble extracellular domain (UniProt P12318); experiment: SPR; fold change in affinity over wild-type v16463
[18] = target: FcγRIIb, soluble extracellular domain (UniProt P31994); experiment: SPR; fold change in affinity over wild-type v16463
[19] = target: FcγRIIb, soluble extracellular domain (UniProt P31994); experiment: SPR; IIb-Fold/IIaR-Fold (FcγRIIb against FcγRIIaR), relative to control v27293
[20] = target: FcγRIIaR, soluble extracellular domain (UniProt P12318); experiment: SPR; fold change in affinity over control v27293 (Strategy 1 Launching Module)
[21] = target: FcγRIIb, soluble extracellular domain (UniProt P31994); experiment: as above
[22] = target: FcγRIIb, soluble extracellular domain (UniProt P31994); experiment: SPR; IIb-Fold/IIaR-Fold (FcγRIIb against FcγRIIaR), vs. wild-type v16463
[23] = target: Soluble FcγRIIb extracellular domain with C-terminal 10×His tag (UniProt P31994); experiment: SPR; IIb-Fold / IIaR-Fold (FcγRIIb against FcγRIIaR)
[24] = target: Soluble FcγRIIb extracellular domain with C-terminal 10×His tag (UniProt P31994); experiment: SPR (Biacore 4000), antibody captured on immobilised HER2, receptor as analyte
[25] = target: Soluble FcγRIIaR extracellular domain with C-terminal 10×His tag (UniProt P12318); experiment: as above
[26] = target: Soluble FcγRIIb extracellular domain with C-terminal 10×His tag (UniProt P31994); experiment: SPR; KD of WT v16463 / KD of variant
[27] = target: Soluble FcγRIIaR extracellular domain with C-terminal 10×His tag (UniProt P12318); experiment: SPR; KD of WT v16463 / KD of variant
[28] = target: Biotinylated FcγRIIb extracellular domain-Fc fusion (human) (UniProt P31994); experiment: competition electrochemiluminescence (MSD), antibody on HER2-coated plate, biotinylated FcγRIIb-Fc; competitor FcγRIIaR-Fc at 10x
FcγRIIb = FcγRIIb (UniProt P31994); experiment: SPR (Biacore 4000, Protocol 2), one-armed antibody captured on immobilised HER2, soluble FcγR as analyte
FcγRIIaR = FcγRIIaR (UniProt P12318); experiment: as above

IIaR-fold (fold change in affinity over wild-type) [1]: 1 fold
IIb-fold (fold change in affinity over wild-type) [2]: 1 fold
IIb/IIaR Selectivity (IIb-Fold/IIaR-Fold) [3]: 1
Substance: Variant 16463, wild-type control one-armed trastuzumab antibody with heterodimeric IgG1 Fc

IIb/IIaR Selectivity (IIb-Fold/IIaR-Fold) [4]: 1.2
IIaR-fold (fold change in affinity over wild-type) [5]: 3.8 fold
IIb-fold (fold change in affinity over wild-type) [6]: 4.39 fold
Substance: Variant 18370 (S239D), one-armed trastuzumab antibody with heterodimeric IgG1 Fc

Kd [7]: 160 nM
Kd [8]: 60 nM
IIb Selectivity [9]: 12.5 fold
IIb-Fold wrt Control [10]: 0.3 fold
IIaR-Fold wrt Control [11]: 0.3 fold
IIb-Fold [12]: 24.1 fold
IIb Selectivity Fold wrt Control [13]: 0.9 fold
IIaR-fold [14]: 1.9 fold
Substance: Variant 26725 (A_D270K_strat2), one-armed trastuzumab antibody with heterodimeric IgG1 Fc

Kd [15]: 8.8 nM
Kd [16]: 3.5 nM
IIaR-Fold vs. WT [17]: 35 fold
IIb-Fold vs. WT [18]: 415 fold
IIb/IIaR Selectivity vs. Control [19]: 1 fold
IIaR-Fold vs. Control [20]: 1 fold
IIb-Fold vs. Control [21]: 1 fold
IIb/IIaR Selectivity vs. WT [22]: 11.8 fold
Substance: Variant 27293, Strategy 1 Launching Module 1 (A_G236N_G237A / B_G236D_G237F_S239D_S267V_H268D_Template 1), one-armed trastuzumab antibody

IIb Selectivity [23]: 80.5 fold
Kd [24]: 13 nM
Kd [25]: 220 nM
IIb-Fold [26]: 112 fold
IIaR-fold [27]: 1.4 fold
ELISA (% of non-competed FcγRIIb signal in presence of 10x FcγRIIa) [28]: 100%
Substance: v12, IIb-specific comparator with symmetrical E233D_G237D_P238D_H268D_P271G_A330R (antibody)

Kd (FcγRIIb): 1400 nM
Kd (FcγRIIaR): 310 nM
Substance: v16463, wild-type one-armed trastuzumab antibody (OAA format)
